Assay [1] deals with PC12 cells. As to the kind of experiment: PC12 bioassay of neurite outgrowth with astrocyte-conditioned medium. Format: cell-based. Conditions: 24 h. As to the method:
To evaluate neurite outgrowth, PC12 cells were plated at a low density (2×10^4 cells per cm^2) onto poly-D lysine-coated 24-well plates. After 24 h, the adherent PC12 cells were washed with PBS and incubated with conditioned medium derived from either untreated or Ganoderma lucidum-treated astrocyte cultures to monitor neurite outgrowth (using a low serum condition in DMEM containing 1% FBS). Eight to ten images per group were photographed under light microscopy, and the percentage of cells with neurites that exceeded (the percentage of cells with neurites exceeding) the diameter of cell body was analyzed by examining 100-200 cells per image. Images were analyzed by an operator blinded to the experimental conditions. For the preparation of ACM, astrocytes were treated with Ganoderma lucidum for 24 hours and were washed with PBS and fed with low serum medium (without Ganoderma lucidum). After 24 hours, the medium was centrifuged at 200×g for 20 mins to remove cell debris, and the supernatant was collected as the ACM and used immediately. Murine NGF 100 ng/ml (Promega Biotech Co., Ltd, USA) was used as positive control.

Assay [2] deals with NGF. As to the kind of experiment: NGF expression and release in primary astrocyte cultures (RT-PCR, real time PCR, western blot). It is filed as cell-based, C57BL/6J mice. The following applies: primary astrocytes, 6 hours. As to the method: Astrocyte-enriched cultures were prepared from post-natal one day-old C57BL/6J mice obtained from the Animal Center at the National Yang Ming University, Taiwan. Briefly, cortical tissue was digested with trypsin. The resultant dissociated cells were suspended in DMEM containing 10% FBS and incubated in 100-mm culture dishes. After 3 days in culture, cells were re-fed with fresh 10% FBS/DMEM and maintained at 37° C. for an additional 3 days. The cells were dissociated with trypsin, suspended in 10% FBS/DMEM and incubated in a 10-cm dish for 7-8 days prior to use. Astrocytes prepared by this method consisted of approximately 90-95% astrocytes as determined by immunochemical staining with an antibody against glial fibrillary acidic protein (GFAP), a specific marker for astrocytes. Neural stem cell cultures were prepared from 1 day-old C57BL/6J mice. Cells obtained by trypsinization of cortical tissue were suspended in 100 ml DMEM/F12 medium (2×10^5 cells/ml) containing 1% N2, 20 ng/ml EGF, 20 ng/ml bFGF and […] BSA in 1 L roller bottles for 7 days for the formation of neurospheres. The neurospheres were examined with an antibody against nestin, a specific marker for neural stem cells. […]
RNA was prepared using RNA-Bee™ RNA isolation reagent (Tel-test, Friendswood, Tex.). […] Relative gene expression levels were calculated with the 2^−ΔΔCT method. […]
(In general: Real-time PCR tracks product formation cycle by cycle.)

In assay [3] the test system is mHtt74Q-expressing PC12 cell. In words: Autophagy in HD cell model: MDC staining and western blot of LC3-II. Format: cell-based. As to the method: Mammalian expression vectors comprising EGFP (pEGFP-C1, Clontech) fused at its C terminus with an HD gene exon 1 fragment with 74 polyglutamine repeats (mHtt-74Q) was a gift from Dr. David C. Rubinsztein's laboratory. The PC12 stable cells were maintained in 100 µg/ml hygromycin in standard medium consisting of DMEM with 100 U/ml penicillin/streptomycin, 2 mM L-glutamine, 10% heat-inactivated horse serum, 5% FBS and 200 ug/ml G418 at 37° C., 5% CO2. The cells were seeded at 2×10^5 per well in 12-well plates and were induced expression of mHtt-74Q with 200 ng/ml doxycycline for 24 h. The expression of transgenes was switched off by removing doxycycline from the medium. […] They were either fixed with 1% paraformaldehyde for 20 mins for FACS analysis (BD Biosciences) of EGFP fluorescence of mHtt-74Q followed by analysis of mean fluorescence intensity of 10,000 events by Cellquest software (BD Biosciences) or processed for real time PCR analysis. […] The samples were mounted and analyzed using a fluorescence microscope (Olympus IX-70 and POT2, USA) with excitation wave of 335 nm and emission of 525 nm. The intensity of the color staining reflected the level of autophagic activity, which was measured with an Image-Pro Plus Analysis system (Media Cybernetics, Bethesda, USA). To quantify MDC punctae, at least 4 random fields were imaged and the average number of punctae area per cell was calculated. […]
(A western blot detects proteins with antibodies after separation by electrophoresis.)

Assay [4] relates to mHtt74Q-expressing PC12 cell. In words: mHtt-74Q aggregation in HD cell model by FACS analysis of EGFP fluorescence. Format: cell-based. As to the method: Mammalian expression vectors comprising EGFP (pEGFP-C1, Clontech) fused at its C terminus with an HD gene exon 1 fragment with 74 polyglutamine repeats (mHtt-74Q) was a gift from Dr. David C. Rubinsztein's laboratory. The PC12 stable cells were maintained in 100 µg/ml hygromycin in standard medium consisting of DMEM with 100 U/ml penicillin/streptomycin, 2 mM L-glutamine, 10% heat-inactivated horse serum, 5% FBS and 200 ug/ml G418 at 37° C., 5% CO2. The cells were seeded at 2×10^5 per well in 12-well plates and were induced expression of mHtt-74Q with 200 ng/ml doxycycline for 24 h. The expression of transgenes was switched off by removing doxycycline from the medium. […] They were either fixed with 1% paraformaldehyde for 20 mins for FACS analysis (BD Biosciences) of EGFP fluorescence of mHtt-74Q followed by analysis of mean fluorescence intensity of 10,000 events by Cellquest software (BD Biosciences) or processed for real time PCR analysis. […] The samples were mounted and analyzed using a fluorescence microscope (Olympus IX-70 and POT2, USA) with excitation wave of 335 nm and emission of 525 nm. The intensity of the color staining reflected the level of autophagic activity, which was measured with an Image-Pro Plus Analysis system (Media Cybernetics, Bethesda, USA). To quantify MDC punctae, at least 4 random fields were imaged and the average number of punctae area per cell was calculated.

Data on 2 molecules can be found in patent US20140147464A1, “METHOD AND COMPOSITION FOR INDUCING AUTOPHAGY” (NATIONAL YANG-MING UNIVERSITY, priority 2012, published 2014).

Take Ganoderic acid C2: in assay [1], the neurite outgrowth activity entry was “particularly marked”. In addition, in assay [2], the “NGF mRNA expression” value is listed as “particularly marked”.

B1: NGF: Nerve growth factor; murine NGF (Promega) used as positive control (protein, UniProt P01139 122-241, looked up)
Beta-nerve growth factor: SSTHPVFHMGEFSVCDSVSVWVGDKTTATDIKGKEVTVLAEVNINNSVFRQYFFETKCRASNPVESGCRGIDSKHWNSYCTTTHTFVKALTTDEKQAAWRFIRIDTACVCVLSRKATRRG
modifications: Beta-nerve growth factor
notes: Nerve growth factor; murine NGF (Promega) used as positive control
B1: in assay [3], the MDC intensity entry is “enhanced MDC stain” and the “autophagic activity (MDC staining, LC3-II western blot)” value is listed as “up-regulated”. In addition, the mHtt-74Q accumulation result in assay [4] (HD cell model, FACS analysis) is on record as “reduction in mHtt-74Q accumulation”. In assay [4] (NGF 50 ng/ml), the “fluorescence distribution of cells expressing mHtt-74Q (aggregates)” value is “reduced aggregates”.
